Literature values in publication PMC4384115, “Molecular Recognition of PTS-1 Cargo Proteins by Pex5p: Implications for Protein Mistargeting in Primary Hyperoxaluria” (Biomolecules, 2015).
pKd: −log10 of the molar value.

Legend:
[1] = target: Carnitine acyl-transferase 1 PTS1 peptide (Homo sapiens)
[2] = target: 3-Hydroxy-3-methylglutaryl-CoA lyase PTS1 peptide (Homo sapiens)
[3] = target: L-Bifunctional enzyme PTS1 peptide (Homo sapiens)

- pKd [1]: 7.23
- pKd [2]: 5.70
- pKd [3]: 5.96
Substance: Pex5p pbd (from UniProt P50542)
